Experiment [1] has as its target T1, biotinylated B Lymphocyte Stimulator, soluble form (human, UniProt Q9Y275 134-285, biotinylated with NHS-biotin, molar ratio 20:1 biotin:protein).
T1 construct: also called bio-B Lymphocyte Stimulator; free B Lymphocyte Stimulator
Briefly: phage scFv, receptor binding inhibition on IM9 cells. Here is the method:
Fifty-five μl of each appropriate phage supernatant was added to each well and the final volume in each well was 65 μl. Plates were then incubated at room temperature for 30 minutes.
Plates were washed three times in PBST and three times in PBS, tapped dry and 50 μl of streptavidin-Delfia (Wallac) was added to each well at 1:1000 dilution in the Manufacturer's assay buffer. The plates were then incubated at room temperature for 1 hour and washed six times in Delfia wash solution (Wallac). After tapping the plates dry, 100 μl per well of Delfia enhancement solution (Wallac) was added. The plates were gently tapped to encourage micelle formation, incubated at room temperature for 10 minutes, and fluorescence read on a Wallac 1420 workstation at […].

For another experiment, the target named is LIGHT (human, UniProt O43557 74-240, limits assumed). In words: phage ELISA. Background: An ELISA detects its analyte on a solid surface through an enzyme-linked reagent.
The next experiment addresses T2, TNF-alpha (human, UniProt P01375 77-233).
T2 construct: also called TNFα; TNF-α
In words: phage ELISA.

The next experiment deals with T3, TNF-beta (human, UniProt P01374 35-205).
T3 construct: also called TNFβ; Tumour Necrosis Factor-beta
T3 sequence (looked up): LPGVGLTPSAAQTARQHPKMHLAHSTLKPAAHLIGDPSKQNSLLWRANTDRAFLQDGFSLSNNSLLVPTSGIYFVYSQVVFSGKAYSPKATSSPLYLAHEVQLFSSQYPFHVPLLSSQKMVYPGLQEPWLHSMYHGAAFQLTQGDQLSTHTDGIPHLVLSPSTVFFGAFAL
In words: phage ELISA.

The target of the next experiment is T4, TRAIL (human, UniProt P50591 114-281).
T4 construct: also called TNF-related apoptosis inducing ligand
In words: phage ELISA.

T2 sequence (P01375 77-233 limits assumed): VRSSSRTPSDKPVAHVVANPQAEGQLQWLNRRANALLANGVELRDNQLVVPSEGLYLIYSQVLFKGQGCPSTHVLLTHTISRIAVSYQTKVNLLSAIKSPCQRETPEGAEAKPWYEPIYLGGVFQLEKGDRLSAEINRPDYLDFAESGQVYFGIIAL
Sequence of LIGHT (O43557 74-240 limits assumed): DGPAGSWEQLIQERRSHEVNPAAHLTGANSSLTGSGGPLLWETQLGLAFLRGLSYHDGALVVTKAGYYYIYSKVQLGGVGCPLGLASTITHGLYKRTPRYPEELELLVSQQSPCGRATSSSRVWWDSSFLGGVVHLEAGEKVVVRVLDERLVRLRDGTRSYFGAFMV
T4 sequence (P50591 114-281 limits assumed): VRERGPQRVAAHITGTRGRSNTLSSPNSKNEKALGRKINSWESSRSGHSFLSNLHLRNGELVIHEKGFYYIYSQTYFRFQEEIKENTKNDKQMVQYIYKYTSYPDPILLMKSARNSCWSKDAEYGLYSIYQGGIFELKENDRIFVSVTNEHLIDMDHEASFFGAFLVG

B1: I022D01 (scFv)
scFv: EVNLRESGGGVDQPGRSLRLSCAASGFTFSSYGMHWVRQAPGKGLEWVAVISYDGSNKYYADSVKGRFTISRDNSKNTLYLQMNSLRAEDTAVYYCAKDGYYDILTGYSYYGMDVWGQGPMVAVSSGGGGSGGGGSGGGGSSELTQDPAVSVALGQTVRITCQGDSLRSYYTNWFQQKPGQAPLLVVYAKNKRPSGIPDRFSGSSSGNTASLTITGAQAEDEADYYCNSRDSSGNHVVFGGGTKLTVLG
B1: the binding result in experiment [1] is reported as “binds”.

B2: I016F02 (scFv)
scFv: GVQLVESGAEVKKPGASVKVSCRTSGYTFTSNSFSWVRQAPGQGLEWMGGIIPIFGTANYAQKLQGRVTITADELTRTVYMDLSSLRSEDTAVYYCATGMGDHYGMDVWGRGTLVTVSSGGGGSGGGGSGGGGSQSVLTQPASVSGSPGQSITISCTGTSSDVGGYNYVSWYQQHPGKAPKLMIYEGSKRPSGVSNRFSGSKSGNTASLTISGLQAEDEADYYCSSYTTRSTRVFGGGTKLTVLG
Consider B2, for which the binding result in experiment [1] is recorded as “binds”.

B3: I031C07 (scFv)
scFv: EVQLVQSGAEVKKPGSSVKVSCRASGGSFIDGSINWLRQAPGQGLEWVGGTIPLANRANYAQKFRDRVTITADELTAIVFLELTSLRSDDTALYYCARSSPPRWYDALTGDSSYHSAMDVWGQGTMVTVSSGGGGSGGGGSGGGGSAQSALTQPPSASGSPGQSVTISCSGTSSDIGDSNSVSWYQQHPGKAPKLLIYEVTKRPSGVPDRFAGSRSDNTASLTVSGLQTEDEADYYCSSSAARNHLVFGGGTKVTVLG
As for B3, in experiment [1], the binding result is “binds”.

B4: I029F11 (scFv)
scFv: QVQLVQSRAEVKRPGASVKVSCKASGYRFGSYGITWVRQAPGQGLEWMGWISTRYGDTKSAQKVEGRVTLTTDTSTSTAYMELRSLRSDDTAVYYCARDGSYDILTGYYIDNYMDVWGRGTLVTVSSGGGGSGGGGSGGGGSQSVLTQPPSASGTPGQRVTISCSGSSSNIGSNTVNWYQRLPGAAPQLLIYNNDQRPSGIPDRFSGSKSGTSGSLVISGLQSEDEADYYCASWDDSLNGRVFGGGTKLTVLG
Regarding B4, the binding result in experiment [1] is on record as “binds”.

B5: I037E07 (scFv)
scFv: QVQLVQSGAEVKKPGASVKVSCKASGYTFTNYGITWVRQAPGQGLEWMGWISAYNGNRNYAQKLQGRVTMTTDTSTSTAYMELRSLRSDDTAVYYCVRDGIDILLVPAALMDVWGRGTMVTVSSGGGGSGGGGSGGGGSQSVLTQPASVSGSPGQSITISCTGTSSDVGGYNYVSWYQQHPGKAPKLMIYEGSKRPSGVSNRFSGSKSGNTASLTISGLQAEDEADYYCSSYTTRSTRVFGGGTKLTVLG
On to B5, for which, in experiment [1], the binding result is “binds”.

B6: I037E12 (scFv)
scFv: EVQLVQSGAEVKKPGASVKVSCKASGYTFTNYGITWVRQAPGQGLEWMGWISAYNGNRNYAQKLQGRVTMTTDTSTSTAYMELRSLRSDDTAVYYCVRDGIDILLVPAALMDVWGKGTLVTVSSGGGGSGGGGSGGGGSQSVLTQPASVSGSPGQSITISCTGTSSDVGGYNYVSWYQQHPGKAPKLMIYEGNKRPSGVSNRFSGSKSGNTASLTISGLQAEDEADYYCSSYTTRSTRVFGGGTKLTVLG
Turning to B6, in experiment [1], the binding result is recorded as “binds”.

B7: I050A12 (scFv)
scFv: EVQLVQSGAEVKKPGSSVKVSCKASGDTFSHYAINWVRQAPGQGLEWMGGIIPTFNAVKYAQKFQGRATITADGSTSTAYMELNSLRSEDTAVYYCATAPYDLLTHYFHYFDYWGQGTMVTVSSGGGGSGGGGSGGGGSALSSELTQDPAVSVTLGQTVRITCQGDSLRSYYPSWYQQKPGQAPVLVIYPKNIRPSGIPDRFSGSSSGNTASLTITGAQAEDEADYYCNSRASSGNHYVFATGTKLTVLG
As for B7, the binding result in experiment [1] was “binds”.

B8: I031G08 (scFv)
scFv: QVQLVQSGAEVKKPGSSVKVSCRASGGSFIDDSINWLRQAPGQGLEWVGGTIPLANRANYAQKFRDRATITADELTATVFLELTSLRSDDTALYYCARSSPPKWYDALTGHSSYHSAMDVWGRGTLVTVSSGGGGSGGGGSGGGGSAQSVLTQPPSASGTPGQRVTISCSGTNSNIGGNTVNWYQQLPGTAPRLLIYSNNQRPSGVPDRFSGSKSGTSASLAISGLQSEDEADYYCAARDDRLNAHVVFGGGTKVTVLG
With B8, the binding result in experiment [1] is “binds”.

B9: I021B05 (scFv)
scFv: QVQQSGADVKKPGGSLRLSCAASGFTFSSYSMNWVRQAPGKGLEWVSSISSSSSYIYYADSVKGRFTISRDNAKNSLYLQMNSLRAEDTAVYYCAREGGNYDILTGYYIGNGAFDIWGRGTMVTVSSGGGGSGGGGSGGGGSQSVLTQPASVSGSPGQSITISCTGTSSDVGGYNYVSWYQQHPGKAPKLMIYEGSKRPSGVSNRFSGSKSGNTASLTISGLQAEDEADYYCSSYTTRSTRVFGGGTKLTVLG
B9: the binding result in experiment [1] was “binds”.

B10: I051C04 (scFv)
scFv: QVQLQQSGAEVKKPGSSVKVSCRTSGGTFSNYGLSWVRQAPGQGLEWMGGVIPISSTIKYGQKFQDRLTIAADDLTNTTFMELSSLRPEDTAVYYCARAATTSQKHNKYAYYFYGMDVWGQGTMVTVSSGGGGSGGGGSGGGGSAQSALTQPASVSGSPGQSITISCTGTSSDVGGYNYVSWYQQHPGKAPKLMIYEVSNRPSGVSNRFSGSKSGNTASLTISGLQAEDEADYYCSSYTSSSTLVFGGGTKVTVLG
notes: also called 1051C04
On to B10, for which the binding result in experiment [1] was “binds”.

B11: I031G10 (scFv)
scFv: QVQLVQSGAEVKKPGSSVKVSCRVSGGSFTDDSINWLRQAPGQGLEWVGGTIPLANRANYAQKFRDRVTITADELTATVFLELTSLRSDDTALYYCARSSPPKWYDALTGDSSYHSAMDVWGRGTLVTVSSGGGGSGGGGSGGGGSAQSVVTQPPSVSAAPGQKVTISCSGSTSNIGRNYVSWYQQLPGTATKLLIYDNNKRPSGIPDRFSGSKSGTSATLGITGLQTGDEADYYCGTWDSSLRIYVFGTGTKVTVLG
B11: in experiment [1], the binding result was “binds”.

B12: I026C04-K (scFv)
scFv: QVQLVQSGAEVKKPGSSVKVSCRASGGSFNKHAISWVRQAPGRGLEWMGGILPMYGTANYAQKFQGRVTITADKLTNTVYMDLSRLRYEDTAVYYCARELGLSIVGATTGALDMWGKGTLVTVSSGGGGSGGGGSGGGGSAQSVLTQPPSVSAAPGQKVTISCSGSSSNIGNNYVSWYQQIPGTAPKLLIYENNKRPSGIPDRFSGSKSGASATLDITGLQTGDEADYYCGTWHSSQVVFGGGTKLTVLG
On to B12, for which the binding result with LIGHT, in the experiment with TNF-alpha, with TNF-beta and with TRAIL was “no binding” each time.

B13: I068C06 (scFv)
scFv: EVQLVQSGAEVKKPGSSVKVSCKASGGTVSSRTISWVRQAPGQGLEWMGGSLPPSGAPIYAQKFQGRVAITADALTNTAFMELRSLKSDDTAVYYCARDQGRYLDLWGKGTLVTVSSGGGGSGGGGSGGGGSAQAVLTQPSSVSGAPGQRVTISCTGSRSNIGAGYDVHWYQQLPGTAPKLLIYGNSNRPSGVPDRFSGSKSGTSASLAITGLQADDEADYYCQSYDTSLRGLFGTGTKVTVLG
notes: also called I0068C06; I0068CO6
On to B13, for which the binding result with LIGHT, with TNF-alpha, in the experiment with TNF-beta and with TRAIL was “no binding” in each case.

B14: I016H07 (scFv)
scFv: GVQLVQSGAEVKKPGASVKVSCKASGYTFTHYAINWLRQAPGQRPEWMGTINTGNGNTKYSQNFQGRLTITRDTSASTVNMELSSLRSEDTAVYYCAGGYHDPLTSYNYNWFDPWGQGTMVTVSSGGGGSGGGGSGGGGSSELTQDPAVSVALGQTVRITCQGDSLRSYYTNWFQQKPGQAPLLVVYAKNKRPSGIPDRFSGSSSGNTASLTITGAQAEDEADYYCHSRDSSGNHVLFGGGTKLTVLG
Consider B14, for which the binding result in experiment [1] is listed as “binds”.

B15: I050B11 (scFv)
scFv: QVQLVQSGVEVKKPGASVKVSCKASGYTFSNHGISWVRQAPGQGLEWVGWISGHDDSTKYAQKFQGRVTMTADTSTSTAYIELRSLKSDDTAVYYCARPFYDTLTSYVFQYFDHWGQGTMVTVSSGGGGSGGGGSGGGGSALETTLTQSPDTLSLSPGERATLSCRASQSVTRGWVAWYQQKPGQAPRLLMYGTSRRATGVPDRFSGSESGTDFTLTISRLEPEDFAVYYCQQYATSPRTFGQGTRLEIKR
Consider B15, for which the binding result in experiment [1] is on record as “binds”.

B16: I012A06 (scFv)
scFv: QVQLQESGPGVVKPSQTLSLTCTVSGVSISSDSYYWSWIRQPAGKGPEWIGRIYPTGSTNYNPSLKSRVTISVDTSKNQFSLQLTSVTAADTAVYYCARGRWDYDLLTGEHLGYYFDYWGRGTLVTVSSGGGGSGGGGSGGGGSALSSELTQDPAVSVALGQTVRITCQGDTLRNYYASWYQQKPGQAPVLVIHSRNNRPSGIPDRFSGSSSGTTASLTITGSQAEDEADYYCNSRDSSGNVIFGGGTKLTVLG
Regarding B16, the binding result in experiment [1] is reported as “binds”.

The values above are taken from patent US20110293610A1 (published 2011).
